Drawing on the RNAGym collection of RNA variant scans (doi:10.7554/elife.80360), this text covers self-cleavage for 32 variants.

The chains are these.
B1: HDV Ribozyme (parent)
chain: GGCCGGCAUGGUCCCAGCCUCCUCGCUGGCGCCGGCUGGGCAACAUUCCGAGGGGACCGUCCCCUCGGUAAUGGCGAAUGGGACCCA

The series covers variants of B1. The series can be described thus: self-cleavage, relative activity (ratio to wild type); higher = more cleavage; co-transcriptional.
As to GGCCGGCACGGUCCCAGCCUCCUCGCUGGCGCCGGCUGGGCAACAUUCCGAGGGGACCGUCCCCGCGGUAAUGGCGAAUGGGACCCA, the self-cleavage was determined as 1.37.
Turning to CGCCGGCAUGGUCCCAGCCUCCUCGCUGGCGCCGGCUGGGCAACAUUACGAGGGGACCGUCCCCUCGGUAAUGGCGAAUGGGACCCA, the self-cleavage came to 0.293.
As for GGCCGGCAUGGUCCCAGCCUCCUCGCUGGCGCCGGCUGGGCAACAUUCCGAGGGGACCGUCCCCUAGGUAAUGGCGAAUGGGAUCCA, the self-cleavage is 0.696.
In the case of GGCCGGCAUGGUCCCAGCCUCCUCGCUGGCGCCGGCUGGGCAACAUUCCGACGGGACCGUCCCCUCGGGAAUGGCGAAUGGGACCCA, the self-cleavage was 0.914.
As for GGCCGGCAUGGUCCCAGCAUCCUCGCUGGCGCCGGCUGGGCAACAUUCCGAGGGGACCGGCCCCUCGGUAAUGGCGAAUGGGACCCA, the self-cleavage turned out to be 0.0361.
GGCCGGCAUGGUCCCAGCCUCCUCGCUGGCGCCGGCUGGGCAACAUUCCGAGGGGGCCAUCCCCUCGGUAAUGGCGAAUGGGACCCA: the self-cleavage amounted to 0.849.
GGCCGGCAUGGUCCCAGCCUACUCGCUCGCGCCGGCUGGGCAACAUUCCGAGGGGACCGUCCCCUCGGUAAUGGCGAAUGGGACCCA: the self-cleavage was determined as 0.
GGCCGGCAUGGUCCCAGCCUCCUCGCUGGCGCCGGCUGGGCAACUUUCCGAGGGGACCGUCCCCUCGGUAAUGGCGGAUGGGACCCA: the self-cleavage turned out to be 0.609.
As for GGCCGGCAUGGUACCAGCCUCCUCGCUGGCGCCGGCUGGGCAACAUUCCGAGGGGACCGGCCCCUCGGUAAUGGCGAAUGGGACCCA, the self-cleavage was 0.136.
In the case of GGCCGGCAUGGUCCCAGCCUCCUCGCUGGCGCAGGCUGGGCAACAUUCCGAGGGGACCGUCCCCUCGGUAAUGGCGGAUGGGACCCA, the self-cleavage was 0.104.
Under GGCCGGCAUGGUCCCAGCCUCCUCGCUGGCGCCGGCUGGCCAACAUUCCGAGGGGACCGUCCCCUCGGUAAUGGGGAAUGGGACCCA stands 0.166.
GGCCGGCAUGGUCCCAGCCUCCUCGCUGGCGCCUGCUGGGCAACAUUCCGAGGGGACCGUCCCCUCGGUAACGGCGAAUGGGACCCA: the self-cleavage turned out to be 0.164.
In the case of GGCCGGCAUGGUCCCAGCCUCCUCGCUGGCGCCGGCUGGGCAACAUUCCGAGGGGACCGUCCCCUCGGUAAUGGAGUAUGGGACCCA, the self-cleavage is 0.119.
As for GGCCGGCAUGGUCCCAGCCUCCUCGCUGGCGCCGGCAGGGCAACAUUUCGAGGGGACCGUCCCCUCGGUAAUGGCGAAUGGGACCCA, the figure is 0.237; as for GGCCGGCAUGGUCCCAGCCUCCUCGCUGGCGCCGGCUGGGCAAAAUUCUGAGGGGACCGUCCCCUCGGUAAUGGCGAAUGGGACCCA, 0.462.
GGCCGGCAUGGUCCCAGCCUCCUCGCUGGCGCCGGCCGGGCAACAUUCCGAGGGGACCGUCCCCUCGGUAAUGGCGCAUGGGACCCA: the self-cleavage was 0.415.
With GGCCGUCAUGGUCCCAGCCUCCUCGCUGGCGCCGGCUGGGCAACAUUCCGAGGGGACCGUCCCCUCGGUACUGGCGAAUGGGACCCA, the self-cleavage was 0.123.
Under GGCCGGCAUGGUCCAAGCCUCCUUGCUGGCGCCGGCUGGGCAACAUUCCGAGGGGACCGUCCCCUCGGUAAUGGCGAAUGGGACCCA stands 0.0811; under GGCCGGCAUGGUCCCAGCCUCCUCGCUGGCGCCGGCUGGGCAACAUCCCGAGGGGACCGUCCCCUCGGUAAUGGCGAAUCGGACCCA, 0.138; under GGCCGGCAUGGUCCCAGCCUCCUCGCUGGCUCCGGCUGGGCAACACUCCGAGGGGACCGUCCCCUCGGUAAUGGCGAAUGGGACCCA, 0.306.
On to GGCCGGCACGGUCCCAGCCUCCUCGCUGGCGCCGGCUGGGCAACAUUCCGAGGGGACCGUCCCCUCGGUAAUGGCGAAUCGGACCCA, for which the self-cleavage amounted to 0.256.
Take GGCCGGCAUGGUCCCGGCCGCCUCGCUGGCGCCGGCUGGGCAACAUUCCGAGGGGACCGUCCCCUCGGUAAUGGCGAAUGGGACCCA: the self-cleavage turned out to be 0.145.
Turning to GGCCGGCAUGGUCCCAGCAUCCUCGAUGGCGCCGGCUGGGCAACAUUCCGAGGGGACCGUCCCCUCGGUAAUGGCGAAUGGGACCCA, the self-cleavage stood at 0.462.
As for GGCCGACAUGGCCCCAGCCUCCUCGCUGGCGCCGGCUGGGCAACAUUCCGAGGGGACCGUCCCCUCGGUAAUGGCGAAUGGGACCCA, the figure is 0.277; as for GGCCGGCAUGGUCCCAGCCUCCUCGCUGGUGCCGGCUGGGCAACAUGCCGAGGGGACCGUCCCCUCGGUAAUGGCGAAUGGGACCCA, 0.571; as for GGCCGGCAGGGUCCCAGCCUCCUCGCUGGCGCCGGCUGGGCAACAUUCCGAGGGGACCGUCCCCUGGGUAAUGGCGAAUGGGACCCA, 1.19.
As for GGCCGGCAUGGUCCCAGCCUCCUCGCUGGCGCCGGCUGGUCAACAUUCCGAGGGGACCGUCCCGUCGGUAAUGGCGAAUGGGACCCA, the figure is 0.446.
As for GACCGGCAUGGUCCCAGCCUCCUCGCUGGCGCCGGCUGGGCAACAUUCCGAGGGGACCGUCCCCUCGGUAAUGGCGAAUUGGACCCA, the figure is 0.0227; as for GGCCGGCAUGGUCCCAGCCUCCUCGCUGGAGCCGGCUGGGCAACAUUCCGAGGGGACCGUACCCUCGGUAAUGGCGAAUGGGACCCA, 0.428.
For the variant GGCCGGCAUGGUCCCAGCCUCCUCGCUGGCGCCGGCUGGGCAACAUUCCGAUGGGACCGUCCCCUCGGUAAUGGCGAAAGGGACCCA, the self-cleavage is 0.759.
Regarding GGCCGGCAUGGUCCCAGCUUCCUCGCUGGCGCCGGCUGGGCAACAUUCCGAGGGGACCGACCCCUCGGUAAUGGCGAAUGGGACCCA, the self-cleavage amounted to 0.192.
Take GGCCGGCAUGGUCCCAGUCUCCUCGCUGGCGCCGGCUGGGCAACAUUACGAGGGGACCGUCCCCUCGGUAAUGGCGAAUGGGACCCA: the self-cleavage stood at 0.644.
